The values that follow come from PMC5905287, “Synthesis and in vitro biochemical evaluation of oxime bond-linked daunorubicin–GnRH-III conjugates developed for targeted drug delivery” (Beilstein Journal of Organic Chemistry, 2018).

Where two headings read alike, the source gives them in different places. Non-standard residues stand in square brackets, D forms with d. Residues, ends and D or L forms follow the SMILES beside them. *: point of attachment. Daunorubicin(13-NOCH2CO) = COc1cccc2c1C(=O)c1c(O)c3c(c(O)c1C2=O)C[C@@](O)(C(C)=NOCC(=O)*)C[C@@H]3O[C@H]1C[C@H](N)[C@H](O)[C@H](C)O1; pGlu = O=C1CC[C@@H](C(=O)O)N1; Butyryl = CCCC(=O)*

One data set concerns the target T1, GnRH-RI (Homo sapiens, UniProt P30968).
T1 sequence (P30968 1-328): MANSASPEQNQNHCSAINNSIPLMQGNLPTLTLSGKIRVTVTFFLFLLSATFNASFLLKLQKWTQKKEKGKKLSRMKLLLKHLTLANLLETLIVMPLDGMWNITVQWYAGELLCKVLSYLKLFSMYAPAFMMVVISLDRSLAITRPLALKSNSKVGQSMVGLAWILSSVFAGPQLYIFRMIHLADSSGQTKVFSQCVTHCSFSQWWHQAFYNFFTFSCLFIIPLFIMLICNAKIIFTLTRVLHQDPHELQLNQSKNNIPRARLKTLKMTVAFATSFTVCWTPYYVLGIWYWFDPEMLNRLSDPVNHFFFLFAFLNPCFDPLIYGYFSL
The experiment in a line: Competitive inhibition of [125I][6D-Trp]-GnRH-I binding, human pituitary membranes. More on the design: human prostate cancer cells were obtained from a patient at the time of initial surgical treatment; from tissue; host or cells: human prostate cancer specimen from a patient (surgery); membrane homogenate. The protocol:
To investigate the binding affinity of the novel compounds to the GnRH-receptor, an in vitro ligand competition assay has been performed on human pituitary and GnRH-R positive human prostate cancer tissues. Hereby, the displacement of radiolabeled triptorelin by the unlabeled bioconjugates 1, 2, 4 and 5 was determined. For a better comparison, the bioconjugates K1 and K2 were also analyzed and used as reference. The obtained results summarized in Table 3 point out that all bioconjugates replaced [^125I]-triptorelin with IC50 values in low nanomolar range. […] (1.6 nM and 0.9 nM) and GnRH-II–[D-Lys^6(Dau=Aoa)] (4.2 nM and 2.1 nM).
Radiolabeled triptorelin was used for displacement studies to evaluate the binding affinity of the conjugates K1, K2, 1, 2, 4 and 5 to GnRH-RI on human pituitary and human prostate cancer cells. […] The binding affinities of the nonradio-labeled GnRH-III bioconjugates to GnRH-RI were determined by displacement of [^125I]-GnRH-I-[^6D-Trp] performing an in vitro ligand competition assay as recently reported. […] Supernatants were aspirated and the bottoms of the tubes containing the pellet were cut off and counted in a gamma counter. Protein concentration was determined by the method of Bradford using a Bio-Rad protein assay kit (Bio-Rad Laboratories, USA). […]

Data set [1] in a line: Degradation in rat liver lysosomal homogenate (LC-MS). It is filed as in vitro ADME. The note with it: for incubation time after which the smallest Dau-containing metabolite H-Lys(Dau=Aoa)-OH was detected: pH 5. The protocol: In order to gain insight into the cellular release of the drug, the degradation of the Dau–GnRH-III derivatives 1–6, K1 and K2 was determined in the presence of rat liver lysosomal homogenate at 37 °C. […] However, the degradation level and the cleavage sites within the GnRH-III sequence differ considerably depending on the incorporated amino acids, whereby the hydrolyses of the C-terminus (H-Gly-NH2 and H-Pro-Gly-NH2) occurred first in all eight GnRH-III derivatives. Due to the high chemical and enzymatic stability of the oxime bond, no free Dau was detected by LC–MS. In accordance with our previous results, the digestion of the two peptides containing L-Asp in position 6 (K1, K2) provided the smallest Dau-containing metabolite (H-Lys(Dau=Aoa)-OH, m/z 729.36 [M + H]^+). This metabolite could already be detected after 1 hour of incubation in case of K2 and after 2 hours in case of K1. […] It might be assumed that D-Trp of GnRH-III–[^4Lys(Bu), ^6D-Tpr, ^8Lys(Dau=Aoa)] (6) is also accepted at the cleavage site, but due to the prior hydrolysis of the ^7Trp-^8Lys(Dau=Aoa)-bond an evidential fragment has not been detected. A reason for these diversities might be the subsite specificities of the lysosomal proteases. For instance, lysosomal cysteine proteases also known as cathepsins show a broad substrate specificity. […] For instance, the analyzed fragments of the ^6L-Asp derivatives gave clear hints for the presence of endopeptidases, while the digestion of the ^6D-Aaa compounds 1–3 gave only fragments which evidence the activity of exomono- and/or dipeptidases. Moreover, the obtained results for the bioconjugates that contain ^4Lys(Bu) (K2, 4–6) instead of serine indicate a proteolytic cleavage by lysosomal endopeptidases, which might be of great importance for the release of the smallest Dau-containing metabolite.
The rat liver lysosomal homogenate was prepared as previously described. The protein concentration was determined by Qubit Protein Assay Kit according to the manufacturer’s protocol (ThermoFisher Scientific, Waltham, MA, USA). The bioconjugates were dissolved in ddH2O to a concentration of 5 µg/µL. The reaction was carried out in 0.2 M NaOAc buffer (pH 5), with an identical concentration of bioconjugate and rat liver lysosomal homogenate (0.25 µg/µL). The reaction mixtures were incubated at 37 °C and aliquots of 15 µL were taken at 5 min, 1 h, 2 h, 4 h, 8 h and 24 h and quenched with 2 µL of acetic acid. The analysis of the samples was performed by LC–MS.

With `COc1cccc2c1C(=O)c1c(O)c3c(c(O)c1C2=O)C[C@@](O)(C(C)=NOCC(=O)NCCCC[C@H](NC(=O)[C@H](Cc1c[nH]c2ccccc12)NC(=O)[C@@H](CCC(=O)O)NC(=O)[C@H](Cc1c[nH]cn1)NC(=O)[C@H](CO)NC(=O)[C@H](Cc1c[nH]c2ccccc12)NC(=O)[C@H](Cc1c[nH]cn1)NC(=O)[C@@H]1CCC(=O)N1)C(=O)N1CCC[C@H]1C(=O)NCC(N)=O)C[C@@H]3O[C@H]1C[C@H](N)[C@H](O)[C@H](C)O1` [compound 2, [6D-Glu, 8Lys(Dau=Aoa)]] ([pGlu]HWSH[dE]WK(Daunorubicin(13-NOCH2CO))PG-NH2), the IC50 on GnRH-RI (displacement of [125I]-triptorelin, human pituitary membranes, mean ± SE, read-out: IC50 pituitary) is 0.0235 ± 0.0021 µM. Besides, the “incubation time after which the smallest Dau-containing metabolite H-Lys(Dau=Aoa)-OH was detected” value in data set [1] is on record as 24 h.

For the compound `CCCC(=O)NCCCC[C@H](NC(=O)[C@H](Cc1c[nH]c2ccccc12)NC(=O)[C@H](Cc1c[nH]cn1)NC(=O)[C@@H]1CCC(=O)N1)C(=O)N[C@@H](Cc1c[nH]cn1)C(=O)N[C@H](CCC(=O)O)C(=O)N[C@@H](Cc1c[nH]c2ccccc12)C(=O)N[C@@H](CCCCNC(=O)CON=C(C)[C@]1(O)Cc2c(O)c3c(c(O)c2[C@@H](O[C@H]2C[C@H](N)[C@H](O)[C@H](C)O2)C1)C(=O)c1c(OC)cccc1C3=O)C(=O)N1CCC[C@H]1C(=O)NCC(N)=O` [compound 5, [4Lys(Bu), 6D-Glu, 8Lys(Dau=Aoa)]] ([pGlu]HWK(Butyryl)H[dE]WK(Daunorubicin(13-NOCH2CO))PG-NH2), the IC50 at GnRH-RI worked out at 0.0079 ± 0.0011 µM. In data set [1] (rat liver lysosomal homogenate, 37 °C), the “incubation time after which the smallest Dau-containing metabolite H-Lys(Dau=Aoa)-OH was detected” value is given as 24 h. Further, the “release of the smallest Dau-containing metabolite H-Lys(Dau=Aoa)-OH” value in data set [1] (rat liver lysosomal homogenate, 37 °C, up to 24 h) is on record as “identified in small amount”.
